Values of other authors, collected in paper PMC6994236.

Experiments:
[1] = target: PSD-95 PDZ1-3 (Rattus norvegicus) (UniProt P31016); test: surface plasmon resonance
[2] = target: PSD-95 PDZ3 (Rattus norvegicus) (UniProt P31016); test: surface plasmon resonance
Sequence of PSD-95 PDZ3 (Rattus norvegicus) (P31016 310-396): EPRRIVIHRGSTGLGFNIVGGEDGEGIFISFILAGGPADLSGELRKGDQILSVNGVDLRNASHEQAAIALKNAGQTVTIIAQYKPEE

Sequence of PSD-95 PDZ1-3 (Rattus norvegicus) (P31016 61-393): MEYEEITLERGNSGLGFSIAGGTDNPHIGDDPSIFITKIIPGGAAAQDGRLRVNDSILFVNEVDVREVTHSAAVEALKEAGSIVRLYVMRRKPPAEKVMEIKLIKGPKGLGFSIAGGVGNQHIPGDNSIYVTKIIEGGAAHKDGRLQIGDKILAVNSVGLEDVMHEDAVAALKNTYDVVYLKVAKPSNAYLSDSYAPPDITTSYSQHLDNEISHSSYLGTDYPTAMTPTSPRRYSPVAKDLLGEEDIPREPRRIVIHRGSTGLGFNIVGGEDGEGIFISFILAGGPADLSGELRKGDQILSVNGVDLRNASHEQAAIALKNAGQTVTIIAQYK

Kd [1]: 5 nM
Kd [2]: 650 nM
Substance: synGAP lacking first 100 residues (from UniProt Q9QUH6)
